Measurements as given in article PMC11907795.

Biological target: PthA4-His (Xanthomonas citri subsp. citri (strain …, UniProt A0AAI8ETU3 1-1163))
Assay: EMSA; poly dI-dC; unlabeled competitor 1x-800x
Conditions: protein: recombinant; tags: His (N-terminal, pET28a); label: Cy5; blunt

B1: ProCsGRAS9 (dsDNA)
DNA 1: TATATACATACACACACACACACACACACATAT
DNA 2: ATATGTGTGTGTGTGTGTGTGTGTATGTATATA
binding result: binds
